Laboratory results taken from patent US11541126B1, “Anti-ASGR1 antibody TLR8 agonist comprising conjugates and uses thereof” (Silverback Therapeutics, Inc., priority 2020, dated 2023).
Residue numbers refer to the chain shown, from its start. Numbers in names are those of the source.

T1: HepG2 cells (which express ASGR1) (Homo sapiens, UniProt P07306)
T1 construct: endogenous in cells; host or cells: HepG2
T1 sequence (P07306 1-291): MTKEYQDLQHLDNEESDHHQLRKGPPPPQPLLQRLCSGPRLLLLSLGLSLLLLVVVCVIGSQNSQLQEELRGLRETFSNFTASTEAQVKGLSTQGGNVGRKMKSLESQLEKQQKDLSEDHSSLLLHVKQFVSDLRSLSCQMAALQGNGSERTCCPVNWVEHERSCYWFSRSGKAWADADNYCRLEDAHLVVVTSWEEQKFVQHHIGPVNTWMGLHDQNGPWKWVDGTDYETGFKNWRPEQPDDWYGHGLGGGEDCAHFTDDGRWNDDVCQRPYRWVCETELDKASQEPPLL

B1: hzG2D-33: humanized G2D clone; "G2D VL region ... of clones 1-16, 19-21, 26-29, 31, and 33 ... grafted into the human germline sequence VKI-L1 with JK4" (antibody, V domains shown)
VH: QVQLVQSGAEVKKPGASVKVSCKASGYTFTGYYMHWVRQAPGQRLEWMGRINPNNGATNYNQNFKDKASLTVDTSASTAYMELSSLTSEDTAVYYCTSVNFYYWGQGTTVTVSS
VL: DIQMTQSPSSLSASVGDRVTITCKASQVINSYLSWFQQKPGKAPKSLIYRANTLVDGVPSRFSGSGSGTDFTLTISSLQPEDFATYYCLQYAEFPYTFGGGTKVEIK
modifications: Synthetic sequence hzG2.51D VH R66K, V67A, T68S, I69L, R71V, R84T, A93T, R94S; Synthetic sequence hzG2D VLa
B2: hzG2D-2: humanized G2D clone; "G2D VL region ... of clones 1-16, 19-21, 26-29, 31, and 33 ... grafted into the human germline sequence VKI-L1 with JK4" (antibody, V domains shown)
VH: B1 VH with T28S, K67R, A68V, S69T, L70I, V72R, T87R, T97A, S98R, V110L
VL: B1 VL
modifications: Synthetic sequence hzG2.1D VH T28S, V109L; Synthetic sequence hzG2D VLa
B3: hzG2D-6: humanized G2D clone; "G2D VL region ... of clones 1-16, 19-21, 26-29, 31, and 33 ... grafted into the human germline sequence VKI-L1 with JK4" (antibody, V domains shown)
VH: B1 VH with K67R, A68V, T87R, T97A, S98R, V110L
VL: B1 VL
modifications: Synthetic sequence hzG2.43D VH T68S, I69L, R71V, V109L; Synthetic sequence hzG2D VLa
B4: hzG2D-15: humanized G2D clone; "G2D VL region ... of clones 1-16, 19-21, 26-29, 31, and 33 ... grafted into the human germline sequence VKI-L1 with JK4" (antibody, V domains shown)
VH: B1 VH with T87R, V110L
VL: B1 VL
modifications: Synthetic sequence hzG2.42D VH R66K, V67A, T68S, I69L, R71V, A93T, R94S, V109L; Synthetic sequence hzG2D VLa
B5: hzG2D-13: humanized G2D clone; "G2D VL region ... of clones 1-16, 19-21, 26-29, 31, and 33 ... grafted into the human germline sequence VKI-L1 with JK4" (antibody, V domains shown)
VH: B1 VH with T28S, K67R, A68V, T87R, V110L
VL: B1 VL
modifications: Synthetic sequence hzG2.7D VH T28S, T68S, I69L, R71V, A93T, R94S, V109L; Synthetic sequence hzG2D VLa
B6: hzG2D-5: humanized G2D clone; "G2D VL region ... of clones 1-16, 19-21, 26-29, 31, and 33 ... grafted into the human germline sequence VKI-L1 with JK4" (antibody, V domains shown)
VH: B1 VH with T28S, K67R, A68V, S69T, L70I, V72R, T87R, V110L
VL: B1 VL
modifications: Synthetic sequence hzG2.8D VH T28S, A93T, R94S, V109L; Synthetic sequence hzG2D VLa
B7: hzG2D-14: humanized G2D clone; "G2D VL region ... of clones 1-16, 19-21, 26-29, 31, and 33 ... grafted into the human germline sequence VKI-L1 with JK4" (antibody, V domains shown)
VH: B1 VH with T28S, T87R, T97A, S98R, V110L
VL: B1 VL
modifications: Synthetic sequence hzG2.4D VH T28S, R66K, V67A, T68S, I69L, R71V, V109L; Synthetic sequence hzG2D VLa
B8: hzG2D-4: humanized G2D clone; "G2D VL region ... of clones 1-16, 19-21, 26-29, 31, and 33 ... grafted into the human germline sequence VKI-L1 with JK4" (antibody, V domains shown)
VH: B1 VH with S69T, L70I, V72R, T87R, T97A, S98R, V110L
VL: B1 VL
modifications: Synthetic sequence hzG2.39D VH R66K, V67A, V109L; Synthetic sequence hzG2D VLa
B9: hzG2D-12: humanized G2D clone; "G2D VL region ... of clones 1-16, 19-21, 26-29, 31, and 33 ... grafted into the human germline sequence VKI-L1 with JK4" (antibody, V domains shown)
VH: B1 VH with T28S, S69T, L70I, V72R, T87R, V110L
VL: B1 VL
modifications: Synthetic sequence hzG2.3D VH T28S, R66K, V67A, A93T, R94S, V109L; Synthetic sequence hzG2D VLa
B10: hzG2D-34: humanized G2D clone; "G2D VL region ... of clones 22, 23, 30, 32, and 34-37 ... grafted into the human germline sequence VKI-O2 with JK4" (antibody, V domains shown)
VH: B1 VH
VL: B1 VL with F36Y, S46L
modifications: Synthetic sequence hzG2.51D VH R66K, V67A, T68S, I69L, R71V, R84T, A93T, R94S; Synthetic sequence hzG2D VLb
B11: hzG2D-7: humanized G2D clone; "G2D VL region ... of clones 1-16, 19-21, 26-29, 31, and 33 ... grafted into the human germline sequence VKI-L1 with JK4" (antibody, V domains shown)
VH: B1 VH with T28S, S69T, L70I, V72R, T87R, T97A, S98R, V110L
VL: B1 VL
modifications: Synthetic sequence hzG2.2D VH T28S, R66K, V67A, V109L; Synthetic sequence hzG2D VLa
B12: hzG2D-10: humanized G2D clone; "G2D VL region ... of clones 1-16, 19-21, 26-29, 31, and 33 ... grafted into the human germline sequence VKI-L1 with JK4" (antibody, V domains shown)
VH: B1 VH with K67R, A68V, T87R, V110L
VL: B1 VL
modifications: Synthetic sequence hzG2.44D VH T68S, I69L, R71V, A93T, R94S, V109L; Synthetic sequence hzG2D VLa
B13: hzG2D-9: humanized G2D clone; "G2D VL region ... of clones 1-16, 19-21, 26-29, 31, and 33 ... grafted into the human germline sequence VKI-L1 with JK4" (antibody, V domains shown)
VH: B1 VH with S69T, L70I, V72R, T87R, V110L
VL: B1 VL
modifications: Synthetic sequence hzG2.40D VH R66K, V67A, A93T, R94S, V109L; Synthetic sequence hzG2D VLa
B14: hzG2D-8: humanized G2D clone; "G2D VL region ... of clones 1-16, 19-21, 26-29, 31, and 33 ... grafted into the human germline sequence VKI-L1 with JK4" (antibody, V domains shown)
VH: B1 VH with T28S, K67R, A68V, T87R, T97A, S98R, V110L
VL: B1 VL
modifications: Synthetic sequence hzG2.6D VH T28S, T68S, I69L, R71V, V109L; Synthetic sequence hzG2D VLa
B15: hzG2D-3: humanized G2D clone; "G2D VL region ... of clones 1-16, 19-21, 26-29, 31, and 33 ... grafted into the human germline sequence VKI-L1 with JK4" (antibody, V domains shown)
VH: B1 VH with K67R, A68V, S69T, L70I, V72R, T87R, V110L
VL: B1 VL
modifications: Synthetic sequence hzG2.45D VH A93T, R94S, V109L; Synthetic sequence hzG2D VLa

These molecules were tested against T1, HepG2 cells (which express ASGR1) (assay: Guava HepG2 cell binding screen of humanized anti-ASGR1 clones). Settings: humanized G2D clones (Table 5); two numbers per cell, not explained.
Parameters: unit not given here
Procedure: Hybridomas producing monoclonal antibodies (mAbs) specific for human ASGR1 were prepared from Balb/C mice immunized with ASGR1-AviHis at a service provider using their propriety protocol. Antibody heavy and light chain sequences were obtained, amplified, and cloned. Clone supernatants containing the expressed mAbs were screened for binding to a human ASGR1-IgG1Fc fusion protein, and those with a positive signal as measured by enzyme linked immunosorbent assay (ELISA) were screened for cell binding on HepG2 cells (which express ASGR1).
B1 was tested, and the “Guava HepG2 Screen” value was 164/85.
For B2, the “Guava HepG2 Screen” value was 38/20.
For B3, the “Guava HepG2 Screen” value was 39/23.
In the case of B4, the “Guava HepG2 Screen” value is reported as 172/119.
With B5 the “Guava HepG2 Screen” value was 140/83.
B6 was tested, and the “Guava HepG2 Screen” value was 91/55.
With B7 the “Guava HepG2 Screen” value was 37/16.
In the case of B8, the “Guava HepG2 Screen” value is reported as 55/22.
For B9, the “Guava HepG2 Screen” value was 158/113.
With B10 the “Guava HepG2 Screen” value was 194/109.
In the case of B11, the “Guava HepG2 Screen” value is reported as 46/22.
With B12 the “Guava HepG2 Screen” value was 149/63.
For B13, the “Guava HepG2 Screen” value was 155/117.
B14 was tested, and the “Guava HepG2 Screen” value was 31/21.
For B15, the “Guava HepG2 Screen” value was 131/95.
